Laboratory results taken from patent US20110251246A1.
pKd: −log10 of the molar value.

Molecular target: His-tagged MUC1 cytoplasmic domain (His-MUC1-CD) (human)
Test: SPR (BIAcore), His-MUC1-CD immobilized on the sensor chip, peptide injected at 10 µM, 1:1 binding model

pKd: 7.52
Substance: MUC1/CQC peptide
